Assay results: patent US20140235471A1
Read-outs that look alike come from different tables or passages of the source.

Assays:
[1] = biological target: cell-free expressed recombinant human p53 with N-terminal VSV-G epitope tag and C-terminal polyhisti (human) (UniProt P04637)
[2] = biological target: cell-free expressed recombinant human p53 with N-terminal VSV-G epitope tag and C-terminal polyhisti (human) (UniProt P04637); experiment: fluorescence imaging of p53 beads against blank beads, anti-VSV-Cy3 antibody
[3] = biological target: cell-free expressed recombinant human KLHL12 with N-terminal VSV-G epitope tag and C-terminal polyhistidine and HSV epitope tags (human) (UniProt Q53G59)
[4] = biological target: cell-free expressed recombinant human p53 with N-terminal VSV-G epitope tag and C-terminal polyhisti (human) (UniProt P04637); remark: listed apart in the source
[5] = biological target: cell-free expressed recombinant human p53 with N-terminal VSV-G epitope tag and C-terminal polyhisti (human) (UniProt P04637); experiment: fluorescence imaging of p53 positive against negative control blank beads
[6] = biological target: cell-free expressed recombinant human p53 with N-terminal VSV-G epitope tag and C-terminal polyhisti (human) (UniProt P04637); experiment: Bead-ELISA, chemiluminescence normalised to bead fluorescence; mass-tagged beads

Chain of UniProt Q53G59 (Q53G59 other isoform, or with tags, fused parts or gaps limits assumed): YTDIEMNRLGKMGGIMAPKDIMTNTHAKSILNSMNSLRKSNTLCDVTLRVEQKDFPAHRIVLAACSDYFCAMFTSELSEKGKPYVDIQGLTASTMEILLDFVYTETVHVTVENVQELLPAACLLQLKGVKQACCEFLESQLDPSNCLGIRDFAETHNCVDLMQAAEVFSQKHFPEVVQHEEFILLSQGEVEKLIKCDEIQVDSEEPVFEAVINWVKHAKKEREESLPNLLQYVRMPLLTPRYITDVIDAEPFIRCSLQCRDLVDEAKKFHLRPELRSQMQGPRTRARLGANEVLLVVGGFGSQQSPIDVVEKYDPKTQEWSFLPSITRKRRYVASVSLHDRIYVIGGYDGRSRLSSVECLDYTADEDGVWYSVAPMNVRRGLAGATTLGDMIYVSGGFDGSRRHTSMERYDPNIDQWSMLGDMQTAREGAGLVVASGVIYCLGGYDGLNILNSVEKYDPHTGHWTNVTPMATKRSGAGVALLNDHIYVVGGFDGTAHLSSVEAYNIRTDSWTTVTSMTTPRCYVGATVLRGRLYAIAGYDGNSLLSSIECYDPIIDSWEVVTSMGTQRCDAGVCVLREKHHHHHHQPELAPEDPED

For “anti-HSV tag monoclonal antibody (EMD Biosciences)”, the reduction of the binding capacity of the beads for p53 by the mass tag [1] was 50%.
With “fluorescently (Cy3) labeled anti-VSV-G tag antibody (Sigma-Aldrich)” the signal-to-noise [2] was 25 :1, the signal-to-noise ratio [3] was 10 :1 and the signal-to-noise ratio [4] was 60 :1.
In the case of “fluorescently labeled (Alexa Fluor 594) anti-p53 antibody, clone BP53-12 (Santa Cruz Biotechnology)”, the signal-to-noise ratio [5] is reported as > 100 :1.
In the case of “monoclonal anti-VSV-G horseradish peroxidase (HRP) conjugated antibody, Clone P5D4”, the signal-to-noise ratio [1] is reported as 82 :1 and the signal-to-noise ratio [6] is reported as 42 :1.
